# According to patent US20240228579A1 (Innovent, published 2024):
# Substitutions are numbered along the chain they refer to. In names and notes the source's numbering stands.
# T1: Human CD32A/FCGR2A protein (167Arg) (human, UniProt P12318 34-218, limits assumed)
# T1 construct: Bought, his-tagged; also called CD32A (R167); CD32A R167; not shown: his tag
# T1 sequence (looked up): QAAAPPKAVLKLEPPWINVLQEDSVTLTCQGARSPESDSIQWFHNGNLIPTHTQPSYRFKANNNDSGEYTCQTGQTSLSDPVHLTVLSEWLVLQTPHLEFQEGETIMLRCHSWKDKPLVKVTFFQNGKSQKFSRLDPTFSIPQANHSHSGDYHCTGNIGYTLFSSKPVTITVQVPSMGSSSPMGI
# T2: Human CD32B/FCGR2B protein (human, UniProt P31994 43-217, limits assumed)
# T2 construct: Bought, his-tagged; also called FcγRIIb; not shown: his tag
# T2 sequence (looked up): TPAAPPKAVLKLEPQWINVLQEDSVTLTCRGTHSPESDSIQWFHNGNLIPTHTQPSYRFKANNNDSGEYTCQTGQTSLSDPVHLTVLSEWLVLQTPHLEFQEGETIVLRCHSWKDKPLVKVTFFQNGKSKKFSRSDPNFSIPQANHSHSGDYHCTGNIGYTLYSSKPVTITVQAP
# T3: Human CD32A/FCGR2A protein (167his) (human, UniProt P12318 34-218, limits assumed)
# T3 construct: Bought, his-tagged; also called CD32A (H167); CD32A H167; not shown: his tag
# T3 sequence (looked up): T1 sequence (looked up) with R134H
# T4: Claudin18.2 (cp0007, Genscript) (UniProt P56856-2 1-261, limits assumed)
# T4 construct: Bought antigen used in BLI; also called Claudin18.2 antigen; the antigen
# T4 sequence (looked up): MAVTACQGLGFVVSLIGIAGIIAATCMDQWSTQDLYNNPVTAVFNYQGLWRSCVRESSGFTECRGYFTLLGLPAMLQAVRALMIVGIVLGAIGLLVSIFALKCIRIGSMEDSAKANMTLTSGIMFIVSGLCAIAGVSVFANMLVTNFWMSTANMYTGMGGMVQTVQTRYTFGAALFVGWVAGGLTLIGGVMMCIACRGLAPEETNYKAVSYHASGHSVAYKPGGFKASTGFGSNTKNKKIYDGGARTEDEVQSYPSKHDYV
# B1: Fcmut-02 (antibody, human IgG1, kappa)
# heavy: QVQLVQSGAEVKKPGSSVKVSCKASGYSFSSYNIHWVRQAPGQGLEWMGYIAPFQGDSRYNQKFKGRVTITADKSTSTAYMELSSLRSEDTAVYYCARLNRGNSLDYWGQGTLVTVSSASTKGPSVFPLAPSSKSTSGGTAALGCLVKDYFPEPVTVSWNSGALTSGVHTFPAVLQSSGLYSLSSVVTVPSSSLGTQTYICNVNHKPSNTKVDKKVEPKSCDKTHTCPPCPAPELLGGPSVFLFPPKPKDTLMISRTPEVTCVVVDVSHEDPEVKFNWYVDGVEVHNAKTKPREEQYNSTYRVVSVLTVLHQDWLNGKEYKCKVSNKALAPIEKTISKAKGQPREPQVYTLPPSREEMTKNQVSLTCLVKGFYPSDIAVEWESNGQPENNYKTTPPVLDSDGSFFLYSKLTVDKSRWQQGNVFSCSVMHEALHNHYTQKSLSLSPGK
# light: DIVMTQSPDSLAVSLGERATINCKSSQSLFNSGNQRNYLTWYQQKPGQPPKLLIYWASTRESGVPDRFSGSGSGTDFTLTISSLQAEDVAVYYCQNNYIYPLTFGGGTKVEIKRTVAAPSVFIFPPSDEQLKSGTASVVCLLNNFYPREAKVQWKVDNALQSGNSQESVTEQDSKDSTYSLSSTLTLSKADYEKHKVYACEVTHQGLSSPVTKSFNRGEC
# notes: IgG1-mut of Fcmut-01: deletion of 329 (EU index); also called Fcmut-2
# B2: Fcmut-03 (antibody, human IgG1, kappa)
# heavy: B1 heavy with A330G
# light: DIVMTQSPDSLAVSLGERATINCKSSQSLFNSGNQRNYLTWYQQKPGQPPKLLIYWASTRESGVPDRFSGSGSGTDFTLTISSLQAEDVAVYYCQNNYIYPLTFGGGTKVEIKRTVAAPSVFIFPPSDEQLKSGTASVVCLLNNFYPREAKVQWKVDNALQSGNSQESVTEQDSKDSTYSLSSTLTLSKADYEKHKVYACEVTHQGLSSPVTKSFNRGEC
# notes: IgG1-mut of Fcmut-01: deletion of 329, G at 330 (EU index)
# B3: Fcmut-04 (antibody, human IgG1, kappa)
# heavy: QVQLVQSGAEVKKPGSSVKVSCKASGYSFSSYNIHWVRQAPGQGLEWMGYIAPFQGDSRYNQKFKGRVTITADKSTSTAYMELSSLRSEDTAVYYCARLNRGNSLDYWGQGTLVTVSSASTKGPSVFPLAPSSKSTSGGTAALGCLVKDYFPEPVTVSWNSGALTSGVHTFPAVLQSSGLYSLSSVVTVPSSSLGTQTYICNVNHKPSNTKVDKKVEPKSCDKTHTCPPCPAPELLGGPSVFLFPPKPKDTLMISRTPEVTCVVVDVSHEDPEVKFNWYVDGVEVHNAKTKPREEQYNSTYRVVSVLTVLHQDWLNGKEYKCKVSNKALPIEKTISKAKGQPREPQVYTLPPSREEMTKNQVSLTCLVKGFYPSDIAVEWESNGQPENNYKTTPPVLDSDGSFFLYSKLTVDKSRWQQGNVFSCSVMHEALHNHYTQKSLSLSPGK
# light: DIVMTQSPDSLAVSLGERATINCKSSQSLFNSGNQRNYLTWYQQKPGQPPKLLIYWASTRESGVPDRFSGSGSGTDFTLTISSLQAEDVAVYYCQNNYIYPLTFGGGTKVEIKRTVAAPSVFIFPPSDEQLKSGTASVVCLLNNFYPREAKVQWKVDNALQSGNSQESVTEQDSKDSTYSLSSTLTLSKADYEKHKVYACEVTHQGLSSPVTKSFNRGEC
# notes: IgG1-mut of Fcmut-01: deletion of 329 and 330 (EU index)
# B4: Fcmut-07 (antibody, human IgG1, kappa, L234A L235A)
# heavy: B1 heavy with L235A, L236A, A330G
# light: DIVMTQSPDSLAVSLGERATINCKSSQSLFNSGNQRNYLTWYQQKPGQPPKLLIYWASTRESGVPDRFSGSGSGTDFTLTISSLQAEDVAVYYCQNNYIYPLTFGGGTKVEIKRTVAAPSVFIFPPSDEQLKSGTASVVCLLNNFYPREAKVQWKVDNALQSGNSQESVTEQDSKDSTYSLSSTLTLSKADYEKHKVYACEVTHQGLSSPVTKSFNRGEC
# notes: IgG1-mut of Fcmut-01: L234A + L235A + deletion of 329 + G at 330 (EU index)
# B5: Fcmut-06 (antibody, human IgG1, kappa, L234A L235A)
# heavy: B1 heavy with L235A, L236A
# light: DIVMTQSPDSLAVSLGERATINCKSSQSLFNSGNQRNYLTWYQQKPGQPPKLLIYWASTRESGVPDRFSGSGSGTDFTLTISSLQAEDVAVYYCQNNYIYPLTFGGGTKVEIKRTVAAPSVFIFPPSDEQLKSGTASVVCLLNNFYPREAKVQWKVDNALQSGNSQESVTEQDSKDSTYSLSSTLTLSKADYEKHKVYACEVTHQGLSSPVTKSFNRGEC
# notes: IgG1-mut of Fcmut-01: L234A + L235A + deletion of 329 (EU index)
# B6: Fcmut-08 (antibody, human IgG1, kappa, L234A L235A)
# heavy: B3 heavy with L235A, L236A
# light: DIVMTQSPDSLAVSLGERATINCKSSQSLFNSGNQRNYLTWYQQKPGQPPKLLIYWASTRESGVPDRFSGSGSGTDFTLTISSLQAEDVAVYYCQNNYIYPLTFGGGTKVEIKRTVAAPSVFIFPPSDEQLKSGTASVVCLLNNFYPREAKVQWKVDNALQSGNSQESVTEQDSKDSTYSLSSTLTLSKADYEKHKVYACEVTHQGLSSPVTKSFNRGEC
# notes: IgG1-mut of Fcmut-01: L234A + L235A + deletion of 329 and 330 (EU index); also called Fcmut-8
# Target: T5, Human CD64/FCGR1A protein (human, UniProt P12314 16-288, limits assumed)
# T5 construct: Bought, his-tagged; also called FcγRI; not shown: his tag
# Experiment: SPR (Biacore T200), his-tagged CD64 captured on anti-His CM5 chip, antibody as analyte, pH 7.4, 1:1 binding fit
# Source text: (§1) The specific procedures were as follows: Each of FcγR and FcRn proteins (for information of each Fc receptor, see Table 2 below) containing a histidine tag was captured to the chip surface to which anti-histidine antibodies were coupled, and the binding and dissociation between the proteins on the chip surface and antibodies in the mobile phase were detected to obtain affinity and kinetic constants.
# (§2) Affinity assay: Each cycle included capture of the receptor, binding of a certain concentration of the antibody carrying the Fc region mutation of the present application, and regeneration of the chip. […] In each cycle, the antibody mutant solution flowed over the chip surface at a flow rate of 30 μL/min, with the binding time of 60 s and the dissociation time of 60 s. […] The obtained data were analyzed using Biacore T200 analysis software (version number 3.1) and using an analysis 1:1 binding or homeostasis analysis model to obtain the corresponding results.
# T5 sequence (P12314 16-288 limits assumed): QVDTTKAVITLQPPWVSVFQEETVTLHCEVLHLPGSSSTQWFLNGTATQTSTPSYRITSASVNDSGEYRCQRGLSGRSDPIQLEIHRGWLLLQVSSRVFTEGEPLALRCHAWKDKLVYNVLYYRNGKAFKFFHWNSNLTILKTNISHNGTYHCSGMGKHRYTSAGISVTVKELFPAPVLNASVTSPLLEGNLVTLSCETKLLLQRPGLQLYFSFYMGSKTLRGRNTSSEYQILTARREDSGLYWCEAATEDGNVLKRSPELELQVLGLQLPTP
koff [s⁻¹],kon [M⁻¹ s⁻¹],Binder
0.0136,1.46e+06,B1
0.0377,2.74e+06,B2
0.0141,938000,B3

# Target: T5, Human CD64/FCGR1A protein
# Experiment: SPR (Biacore T200), his-tagged receptor captured, antibody in flow
# Source text: as §1, §2
row,Kd [nM],Binder
1,9.31,B1
2,13.8,B2
3,15,B3

# Target: T6, human C1q (human, UniProt P02745 23-245; P02746 28-253; P02747 29-245)
# T6 construct: Bought C1q (Complement Technology); also called C1q antigen
# Experiment: BLI (Octet), biotinylated antibody on SA sensor, C1q 40 nM
# Procedure: (§3) The antibody was diluted to approximately 100 nM, and C1q (Δ099, Complement Technology) was diluted to 40 nM.
# (§4) Detection was conducted using Fortebio Octet Red96e, and the sensors were arranged according to the positions of the samples. […] After the experiment was completed, KD values were analyzed using ForteBio Octet analysis software, the coordinate axis data were derived, and Graphpad Prism 8 software was used for plotting.
# T6 sequence (P02745 23-245 limits assumed, chain 1 of 3): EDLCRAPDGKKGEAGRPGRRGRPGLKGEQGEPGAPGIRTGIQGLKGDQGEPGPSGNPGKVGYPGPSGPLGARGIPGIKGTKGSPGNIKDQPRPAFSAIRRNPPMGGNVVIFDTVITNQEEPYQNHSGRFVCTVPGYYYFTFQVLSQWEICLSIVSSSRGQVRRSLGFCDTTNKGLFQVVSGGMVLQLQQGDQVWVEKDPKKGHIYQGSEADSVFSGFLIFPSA
# T6 sequence (P02746 28-253 limits assumed, chain 2 of 3): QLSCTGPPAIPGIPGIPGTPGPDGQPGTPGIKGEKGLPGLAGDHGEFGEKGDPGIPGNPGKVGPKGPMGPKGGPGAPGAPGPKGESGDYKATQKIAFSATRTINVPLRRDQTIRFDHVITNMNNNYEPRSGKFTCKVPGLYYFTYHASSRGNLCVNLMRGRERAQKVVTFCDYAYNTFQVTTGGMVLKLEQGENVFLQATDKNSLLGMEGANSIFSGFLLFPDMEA
# T6 sequence (P02747 29-245 limits assumed, chain 3 of 3): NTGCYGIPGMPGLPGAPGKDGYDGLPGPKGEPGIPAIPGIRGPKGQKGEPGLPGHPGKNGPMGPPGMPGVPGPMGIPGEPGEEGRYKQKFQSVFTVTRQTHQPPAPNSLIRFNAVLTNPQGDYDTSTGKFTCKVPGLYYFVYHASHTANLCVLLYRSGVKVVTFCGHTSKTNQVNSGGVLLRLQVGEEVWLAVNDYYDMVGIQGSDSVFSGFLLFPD
row,Response [nm],Binder
1,0.0007,B1
2,0.0016,B2
3,-0.0134,B4
4,-0.0035,B5
5,-0.0027,B3
6,0.0004,B6

# Target: T7, Human FcRn/FCGRT & B2M heterodimeric protein (human, UniProt P55899 24-297; P61769 21-119)
# T7 construct: Bought heterodimer with His and Strep II tags
# Experiment: SPR (Biacore T200), FcRn captured, antibody in flow, pH 6.0; pH 6.0
# Source text: as §1, §2
row,Kd [nM],Binder
1,447,B1
2,317,B2
3,374,B4
4,284,B5
5,505,B3
6,402,B6

# Target: T6, human C1q
# Experiment: BLI (Octet), biotinylated antibody on SA sensor
# Procedure: as §3, §4
row,binding result,Binder
1,no binding (tested: C1q 40 nM),B1
2,no binding (tested: C1q 40 nM),B2
3,no binding (tested: C1q 40 nM),B6

# Target: T5, Human CD64/FCGR1A protein
# Experiment: SPR (Biacore T200);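 as to result: His-tagged Fc receptors captured on an anti-His antibody chip, Fc-variant antibodies flowed as analyte, 60 s association and 60 s dissociation, fitted by 1:1 or steady-state model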
# Source text: as §1, §2
row,binding result,Binder
1,no binding (tested: 400 nM),B4
2,no binding (tested: 400 nM),B5
3,no binding (tested: 400 nM),B6

# Target: T1, Human CD32A/FCGR2A protein (167Arg)
# Experiment: SPR (Biacore T200);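 as to result: His-tagged Fc receptors captured on an anti-His antibody chip, Fc-variant antibodies flowed as analyte, 60 s association and 60 s dissociation, fitted by 1:1 or steady-state model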
# Source text: as §1, §2
row,binding result,Binder
1,no binding (tested: 400 nM),B1
2,no binding (tested: 400 nM),B2
3,no binding (tested: 400 nM),B4
4,no binding (tested: 400 nM),B5
5,no binding (tested: 400 nM),B3
6,no binding (tested: 400 nM),B6

# Target: T2, Human CD32B/FCGR2B protein
# Experiment: SPR (Biacore T200);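 as to result: His-tagged Fc receptors captured on an anti-His antibody chip, Fc-variant antibodies flowed as analyte, 60 s association and 60 s dissociation, fitted by 1:1 or steady-state model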
# Source text: as §1, §2
row,binding result,Binder
1,no binding (tested: 400 nM),B1
2,no binding (tested: 400 nM),B2
3,no binding (tested: 400 nM),B4
4,no binding (tested: 400 nM),B5
5,no binding (tested: 400 nM),B3
6,no binding (tested: 400 nM),B6

# Target: T8, Human FcγRIIIA/CD16A (F176) protein (human, UniProt P08637 17-208)
# T8 construct: Bought, his-tagged; not shown: his tag
# Experiment: SPR (Biacore T200);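 as to result: His-tagged Fc receptors captured on an anti-His antibody chip, Fc-variant antibodies flowed as analyte, 60 s association and 60 s dissociation, fitted by 1:1 or steady-state model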
# T8 sequence (P08637 17-208 limits assumed): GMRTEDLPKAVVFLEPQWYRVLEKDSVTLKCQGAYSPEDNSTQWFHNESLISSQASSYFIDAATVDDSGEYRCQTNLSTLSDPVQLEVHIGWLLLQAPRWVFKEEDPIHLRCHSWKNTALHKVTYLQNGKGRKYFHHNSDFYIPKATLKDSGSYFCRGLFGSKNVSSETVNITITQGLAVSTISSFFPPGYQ
row,binding result,Binder
1,no binding (tested: 400 nM),B1
2,no binding (tested: 400 nM),B2
3,no binding (tested: 400 nM),B4
4,no binding (tested: 400 nM),B5
5,no binding (tested: 400 nM),B3
6,no binding (tested: 400 nM),B6

# Target: T3, Human CD32A/FCGR2A protein (167his)
# Experiment: SPR (Biacore T200)
# Source text: as §1, §2
row,binding result,Binder
1,no binding (tested: 400 nM),B1
2,no binding (tested: 400 nM),B2
3,no binding (tested: 400 nM),B4
4,no binding (tested: 400 nM),B5
5,no binding (tested: 400 nM),B3
6,no binding (tested: 400 nM),B6

# Target: T9, Human FcγRIIIA/CD16A (V176) protein (human, UniProt P08637 17-208)
# T9 construct: Bought, his-tagged; not shown: his tag
# Experiment: SPR (Biacore T200)
# T9 sequence (P08637 17-208 F176V limits assumed): as the sequence (P08637 17-208 limits assumed) above, with F160V counted along it
row,binding result,Binder
1,no binding (tested: 400 nM),B1
2,no binding (tested: 400 nM),B2
3,no binding (tested: 400 nM),B4
4,no binding (tested: 400 nM),B5
5,no binding (tested: 400 nM),B3
6,no binding (tested: 400 nM),B6

# Target: T10, Human FcγRIIIB/CD16B (NA1) (human, UniProt O75015 17-200, limits assumed)
# T10 construct: Bought, his-tagged; not shown: his tag
# Experiment: SPR (Biacore T200)
# T10 sequence (O75015 other isoform, or with tags, fused parts or gaps limits assumed): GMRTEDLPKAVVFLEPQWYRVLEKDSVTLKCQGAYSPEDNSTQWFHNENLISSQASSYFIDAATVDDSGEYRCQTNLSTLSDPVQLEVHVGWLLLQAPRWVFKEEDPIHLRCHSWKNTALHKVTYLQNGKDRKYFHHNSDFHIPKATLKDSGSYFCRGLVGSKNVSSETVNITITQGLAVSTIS
row,binding result,Binder
1,no binding (tested: 400 nM),B1
2,no binding (tested: 400 nM),B2
3,no binding (tested: 400 nM),B4
4,no binding (tested: 400 nM),B5
5,no binding (tested: 400 nM),B3
6,no binding (tested: 400 nM),B6

# Target: T11, Human FcγRIIIB/CD16B (NA2) (human, UniProt O75015 17-200, limits assumed)
# T11 construct: Bought, his-tagged; not shown: his tag
# Experiment: SPR (Biacore T200)
# T11 sequence (O75015 17-200 N65S limits assumed): as the sequence (O75015 other isoform, or with tags, fused parts or gaps limits assumed) above, with R20S, N49S, D66N, V90I counted along it
row,binding result,Binder
1,no binding (tested: 400 nM),B1
2,no binding (tested: 400 nM),B2
3,no binding (tested: 400 nM),B4
4,no binding (tested: 400 nM),B5
5,no binding (tested: 400 nM),B3
6,no binding (tested: 400 nM),B6

# Target: T4, Claudin18.2 (cp0007, Genscript)
# Experiment: BLI (Octet), antibody on AHC sensor, Claudin18.2 100 nM
# Procedure: The antibody and Claudin18.2 (cp0007, Genscript) were diluted to 100 nM, respectively.
# Detection was conducted using Fortebio Octet Red96e, and the sensors were arranged according to the positions of the samples. […] After the experiment was completed, KD values were analyzed using ForteBio Octet analysis software.
Kd [nM],Response [nm],koff [s⁻¹],kon [M⁻¹ s⁻¹],Binder
2.73,0.138,0.0002,73200,B1
2.9,0.15,0.0002,69000,B2
2.47,0.154,0.0002,80900,B4
2.44,0.144,0.0002,81900,B5
2.83,0.146,0.0002,70700,B3
2.41,0.152,0.0002,82900,B6

# Target: T5, Human CD64/FCGR1A protein
# Experiment: SPR (Biacore T200)
# Remark: another data set of the same source
# Source text: as §1, §2
row,fold reduction of binding against Fcmut-01 [times],Binder
1,8.7,B1
2,12.9,B2
3,14,B3
